The values that follow come from paper doi:10.1101/2020.09.30.319905.

“And” between values parts separate entries of the source, which are not always exact repeats. Equal entries are not always repeated.

Test [1] has as its target Truncated ApoE3, residues 80-255 (central helical repeat segment) (human) (UniProt P02649). Briefly: SAXS.
Test [2] has the same target. Briefly: cross-linking.

As to “Truncated ApoE3, residues 80-255 (central helical repeat segment) (from UniProt P02649 80-255) (domain or fragment)”, the stoichiometry N in test [1] is 4; in test [2] it was 2 and 3.
